{"source": "paper doi:10.1101/2021.06.03.446896", "binders": {"B1": {"name": "Pgant35a #2 RNA (ssRNA)", "RNA": "UCUUCCGGGCGAUCCCAGACACUCGGCACAAGGUGUGCGAUCGCCAGGAGACCACGGAAGCGGAAAAUCUGCCCCAGGCCUCCAUAGUCAUGUGCUUCUA"}, "B2": {"name": "Pgant35a #4 RNA (ssRNA)", "RNA": "CUGCAUGUGCCGGGCGAGGAGUCCAAGAAGUCGGCGGCAGCGCCCAUCUUUCAGCCUUGGCACUCGCGAAAACGUAACUAUGUCGACACAUUCCAGCUGC"}, "B3": {"name": "Hsp70Aa #1 RNA (ssRNA)", "RNA": "CUCACACACAAUGCCUGCUAUUGGAAUCGAUCUGGGCACCACCUACUCCUGCGUGGGUGUCUACCAACAUGGCAAGGUGGAGAUUAUCGCCAACGACCAG"}, "B4": {"name": "Hsp70Aa #5 RNA (ssRNA)", "RNA": "GCAGGCCGAGAUUGAUCGCAUGGUGAACGAGGCUGAAAAGUACGCCGACGAGGACGAGAAGCAUCGCCAGCGAAUAACCUCUAGAAAUGCCCUGGAGAGC"}, "B5": {"name": "Pgant35a #5 RNA (ssRNA)", "RNA": "AAGUGCCACGAGAUGCUCGGCGAUCAGCAGUGGCGGCACACCCGCAACGCCAACAGUCCCGUCUACAACAUGGCCAAAGGCACCUGCCUCCGGGCAGCUG"}, "B6": {"name": "Hsp70Aa #2 RNA (ssRNA)", "RNA": "GAGGACAUGAAGCACUGGCCUUUCAAGGUUGUAAGCGACGGCGGAAAGCCCAAGAUCGGGGUGGAGUAUAAGGGUGAGUCCAAGAGAUUUGCCCCCGAGG"}, "B7": {"name": "Pgant35a #1 RNA (ssRNA)", "RNA": "UCGGCAGGAUGGAGGAUCGACGAAGGGAACGCAACGCCACGGGCCGAGCUGAGCUACCAGGCCAGGGUCACCGUCGGAUGCACUCCAAAUGCCAGCAUUA"}, "B8": {"name": "Hsp70Aa dsDNA (dsDNA)", "DNA 1": "not shown", "DNA 2": "not shown"}, "B9": {"name": "Pgant35a #3 RNA (ssRNA)", "RNA": "GUCAUUGGUGCACGCGAGGCCGUGGGCGAUGUGCUCGUCUUCCUCGACUCGCAUAUCGAGGUCAAUCAGCAGUGGCUGGAGCCGCUGCUGCGCCUCAUCA"}, "B10": {"name": "Hsp70Aa dsRNA (dsRNA)", "RNA 1": "not shown", "RNA 2": "not shown"}}, "note": "Where “and” joins values, the source holds several entries; their conditions need not be identical. Equal entries are not always repeated.", "data": [{"molecular_target": "T1, dMi-2 WT (UniProt O97159 1-1982)", "T1 sequence (O97159 whole entry)": "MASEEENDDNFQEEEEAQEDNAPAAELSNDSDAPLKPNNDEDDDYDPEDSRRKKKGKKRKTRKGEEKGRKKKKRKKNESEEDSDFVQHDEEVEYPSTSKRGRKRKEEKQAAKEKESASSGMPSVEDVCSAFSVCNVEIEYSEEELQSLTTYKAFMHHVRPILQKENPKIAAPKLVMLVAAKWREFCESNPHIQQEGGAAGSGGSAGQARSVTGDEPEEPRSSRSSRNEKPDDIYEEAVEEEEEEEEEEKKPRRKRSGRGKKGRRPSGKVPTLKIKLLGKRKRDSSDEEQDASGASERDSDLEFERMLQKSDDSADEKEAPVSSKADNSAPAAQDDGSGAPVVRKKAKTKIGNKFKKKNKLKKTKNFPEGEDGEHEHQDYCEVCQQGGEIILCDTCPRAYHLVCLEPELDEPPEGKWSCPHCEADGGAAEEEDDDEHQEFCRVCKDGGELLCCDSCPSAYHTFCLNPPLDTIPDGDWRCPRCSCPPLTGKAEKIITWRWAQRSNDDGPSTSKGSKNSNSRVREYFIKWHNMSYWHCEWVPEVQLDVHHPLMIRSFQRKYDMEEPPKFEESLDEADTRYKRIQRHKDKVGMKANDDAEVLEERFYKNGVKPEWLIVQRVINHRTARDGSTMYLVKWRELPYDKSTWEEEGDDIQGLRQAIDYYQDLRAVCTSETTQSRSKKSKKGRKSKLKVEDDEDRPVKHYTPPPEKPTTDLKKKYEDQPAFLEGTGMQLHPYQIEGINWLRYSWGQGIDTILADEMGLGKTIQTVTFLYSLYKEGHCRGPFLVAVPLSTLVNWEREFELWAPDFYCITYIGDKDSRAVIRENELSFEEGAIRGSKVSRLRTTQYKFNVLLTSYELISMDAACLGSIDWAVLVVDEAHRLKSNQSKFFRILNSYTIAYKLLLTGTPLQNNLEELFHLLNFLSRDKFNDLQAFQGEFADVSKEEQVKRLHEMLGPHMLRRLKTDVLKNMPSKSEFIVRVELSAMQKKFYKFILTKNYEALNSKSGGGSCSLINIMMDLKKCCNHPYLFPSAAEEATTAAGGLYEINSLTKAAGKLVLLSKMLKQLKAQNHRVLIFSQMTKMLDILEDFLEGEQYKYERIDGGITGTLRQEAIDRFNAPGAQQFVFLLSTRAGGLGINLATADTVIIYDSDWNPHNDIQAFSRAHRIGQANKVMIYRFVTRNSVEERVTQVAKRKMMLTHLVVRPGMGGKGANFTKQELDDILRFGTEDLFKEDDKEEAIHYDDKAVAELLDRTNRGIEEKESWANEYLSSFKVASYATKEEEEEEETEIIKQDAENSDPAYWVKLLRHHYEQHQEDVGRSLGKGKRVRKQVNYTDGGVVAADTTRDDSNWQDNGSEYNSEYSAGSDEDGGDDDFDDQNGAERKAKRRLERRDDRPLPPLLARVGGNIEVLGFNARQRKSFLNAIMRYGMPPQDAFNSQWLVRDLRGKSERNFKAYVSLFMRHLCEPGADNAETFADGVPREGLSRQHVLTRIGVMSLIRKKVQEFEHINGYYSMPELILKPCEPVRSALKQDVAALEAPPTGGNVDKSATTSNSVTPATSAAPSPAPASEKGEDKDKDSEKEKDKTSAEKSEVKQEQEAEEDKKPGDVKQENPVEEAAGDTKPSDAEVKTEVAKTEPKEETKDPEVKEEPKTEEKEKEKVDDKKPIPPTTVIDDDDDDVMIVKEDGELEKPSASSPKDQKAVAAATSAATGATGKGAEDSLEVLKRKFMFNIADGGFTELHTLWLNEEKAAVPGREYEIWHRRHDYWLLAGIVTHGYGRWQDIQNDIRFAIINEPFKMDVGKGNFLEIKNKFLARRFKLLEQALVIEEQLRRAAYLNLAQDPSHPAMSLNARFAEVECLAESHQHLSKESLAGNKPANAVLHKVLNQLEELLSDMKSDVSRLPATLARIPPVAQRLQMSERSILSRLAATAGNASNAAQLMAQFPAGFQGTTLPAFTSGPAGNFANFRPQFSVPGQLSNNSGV", "experiment": "EMSA", "values": [{"binder": "B1", "binding result": "binds"}, {"binder": "B2", "binding result": "binds"}, {"binder": "B3", "binding result": "binds"}, {"binder": "B4", "binding result": "binds"}, {"binder": "B5", "binding result": "binds"}, {"binder": "B6", "binding result": "binds"}, {"binder": "B7", "binding result": "binds"}]}, {"molecular_target": "T1, dMi-2 WT", "experiment": "EMSA", "remark": "another data set of the same source", "values": [{"binder": "B8", "Kd": "820 ± 100 nM"}, {"binder": "GAGAGAGAGAGAGAGAGAGAGAGAGAGAGAGAGAGAGAGA (ssRNA)", "note": "[(GA)20 RNA]", "Kd": "70 nM and 80 nM"}, {"binder": "B9", "Kd": "630 ± 280 nM"}, {"binder": "CCUACGGACUGGACAAGAACCUCAAGGGUGAGCGCAAUGU (ssRNA)", "note": "[Hsp70Aa #6 RNA]", "Kd": "310 ± 100 nM"}, {"binder": "B10", "Kd": "860 ± 100 nM"}, {"binder": "AAAAAAGGGGAAAAGGGGAAAAGGGGAAAAGGGGAAAAAA (structured_RNA)", "note": "[(G4A4)4 RNA]", "Kd": "80 nM"}]}, {"molecular_target": "T2, dMi-2 (118-238) (UniProt O97159 118-238)", "T2 sequence": "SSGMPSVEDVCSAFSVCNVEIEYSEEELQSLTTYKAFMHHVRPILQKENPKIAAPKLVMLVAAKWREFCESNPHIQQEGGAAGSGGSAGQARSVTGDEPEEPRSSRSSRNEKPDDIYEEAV", "experiment": "EMSA", "values": [{"binder": "CCUACGGACUGGACAAGAACCUCAAGGGUGAGCGCAAUGU (ssRNA)", "note": "[Hsp70Aa #6 RNA]", "binding result": "no binding"}]}]}
